Measurements published in article PMC10046460, “Phase I Trial of [^99mTc]Tc-maSSS-PEG2-RM26, a Bombesin Analogue Antagonistic to Gastrin-Releasing Peptide Receptors (GRPRs), for SPECT Imaging of GRPR Expression in Malignant Tumors” (Cancers, 2023).
Square brackets hold non-standard residues; d marks the D form. Peptide text beside a SMILES is read from it. * marks the point of attachment. Sta = CC(C)C[C@H](N)[C@@H](O)CC(=O)O; Mercaptoacetyl = O=C(CS)*; AEEA = NCCOCCOCC(=O)O

Experiments:
[1] = target: T1, gastrin-releasing peptide receptor (GRPR) (Homo sapiens, UniProt P30550); experiment: SPECT/CT imaging of tumor uptake in PCa patients; type: in vivo; details: for SUVmax: prostate tumor, 40 µg iv; for SUVmax / Ratio SUVmax in Tumor to Background: 2 h post administration
T1 construct: from tissue; host or cells: primary prostate cancer, primary breast cancer and axillary lymph-node metastases in living patients
Protocol: (§1) A single-center diagnostic phase I open-label exploratory study (ClinicalTrials.gov ID NCT04746638) was conducted at the Cancer Research Institute, Tomsk National Research Medical Center of the Russian Academy of Sciences, and the initial protocol was approved by the Institute’s Scientific Council and Board of Medical Ethics (protocol 14, approved 21 December 2020). Patients (18–70 y) with clinically and radiologically diagnosed (with histological verification) PCa or BCa were included in this study after providing written informed consent. Criteria for inclusion were: the ability to undergo planned diagnostic investigations; patient’s hematological, liver, and renal function test results within the normal limits; and a negative pregnancy test for BCa patients. The exclusion criteria included contraindications to surgical intervention due to severe concomitant pathology; a second malignancy (non-breast or non-prostate); activity/history of autoimmune disease, hepatitis B or C, HIV, or infectious diseases within the preceding 3 months; participation in other clinical studies; and ongoing toxicity over grade 2 from previous standards or investigational therapies. Additionally, for PCa patients, exclusion criteria were androgen deprivation therapy over 3 months, and for BCa patients, exclusion criteria were HER2-positive or non-luminal cancer, in situ T0 and T3-4 tumors, the presence of distant metastases, and history of chemo- and/or hormone-therapy. Six male PCa and seven female BCa patients were included in the study (Figure 1 and Figure 2).
(§2) Patients were injected with [^99mTc]Tc-maSSS-PEG2-RM26 (40 µg of maSSS-PEG2-RM26 labeled with 640 ± 165 MBq for PCa and 695 ± 120 MBq for BCa patients per injection) as a single intravenous bolus. Imaging was performed using a hybrid system (Symbia Intevo T16), equipped with a dual-head gamma camera and an integrated 16-slice CT scanner. For imaging, a low-energy high-resolution collimator was used. Patients underwent whole-body planar images (anterior and posterior, with a of scan speed 12 cm/min in a 1024 × 256 pixel matrix) and SPECT-CT acquisition (32 projections, 30 s each, in a 128 × 128 pixel matrix) and a low-dose CT (140 kVp, 20 mAs/slice in a 512 × 512 pixel matrix) were performed 2, 4, 6, and 24 h after injection. The images were transferred to a Syngo.via (Siemens) workstation for analysis.

[2] = target: T1, gastrin-releasing peptide receptor (GRPR); experiment: SPECT/CT imaging of tumor and LN metastasis uptake in BCa patients; type: in vivo; details: for SUVmax, tumor (T) / SUVmax, single LN metastasis (LNM): 2 h post administration, 40 µg iv; for median activity accumulation (SUVmax): 2 h after injection, Me [Q1–Q3]
Protocol: as §1, §2

clinical = details: human, in vivo; for tissue uptake dose at 2 h / tissue uptake dose at 4 h / tissue uptake dose at 6 h / tissue uptake dose at 24 h: iv, 40 ug, total radioactivity, Distribution, SD
Protocol: as §2
(§3) The geometric means of counts in the regions of interest (ROIs) drawn over organs and the whole body for anterior and posterior projections were calculated for every time point. An ROI for the heart was used to estimate activity concentrations in the blood. Quantification was performed as described previously. Absorbed doses for individual organs, effective doses, and effective dose equivalents were calculated in OLINDA/EXM 1.1 (adult male phantom for PCa and adult female phantom for BCa) using average residence times derived from activity distributions over time fitted to a single exponential using Prism 9.2.0 (GraphPad Software, LLC, Boston, MA, USA).

[3] = design: species or system human; details: in vivo
Protocol: as §3

T1 sequence (P30550 whole entry): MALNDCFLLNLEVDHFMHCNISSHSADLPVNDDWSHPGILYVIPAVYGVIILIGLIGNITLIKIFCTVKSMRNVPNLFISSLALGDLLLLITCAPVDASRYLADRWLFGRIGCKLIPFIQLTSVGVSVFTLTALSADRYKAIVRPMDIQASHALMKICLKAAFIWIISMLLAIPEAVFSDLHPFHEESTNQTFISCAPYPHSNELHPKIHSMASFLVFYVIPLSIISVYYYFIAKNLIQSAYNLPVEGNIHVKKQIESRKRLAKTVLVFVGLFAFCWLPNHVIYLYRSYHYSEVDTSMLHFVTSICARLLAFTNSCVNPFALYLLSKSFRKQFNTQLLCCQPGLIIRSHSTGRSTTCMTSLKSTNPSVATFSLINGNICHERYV

CC(C)C[C@H](NC(=O)C[C@H](O)[C@H](CC(C)C)NC(=O)[C@H](Cc1c[nH]cn1)NC(=O)CNC(=O)[C@@H](NC(=O)[C@H](C)NC(=O)[C@H](Cc1c[nH]c2ccccc12)NC(=O)[C@H](CCC(N)=O)NC(=O)[C@@H](Cc1ccccc1)NC(=O)COCCOCCNC(=O)[C@H](CO)NC(=O)[C@H](CO)NC(=O)[C@H](CO)NC(=O)CS)C(C)C)C(N)=O [[^99mTc]Tc-maSSS-PEG2-RM26, metal not drawn] (Mercaptoacetyl-SSS[AEEA][dF]QWAVGH[Sta]L-NH2)
SUVmax ([1]; PCa patient P2, SPECT/CT): 0.78 (1.7 × 2)
SUVmax ([1]; PCa patient P3, SPECT/CT): 1.21 (4.1 × 2.8)
SUVmax ([1]; PCa patient P4, SPECT/CT): 1.14 (1.8 × 2.0)
Ratio SUVmax in Tumor to Background ([1]; PCa patient P5): No accumulation
SUVmax ([1]; PCa patient P5, SPECT/CT): No accumulation
Ratio SUVmax in Tumor to Background ([1]; PCa patient P6): No accumulation
SUVmax ([1]; PCa patient P6, SPECT/CT): No accumulation
patients with uptake in tumors identified ([1]; PCa patients, SPECT/CT): four out of six
median activity accumulation (SUVmax) ([1]; prostate tumors, 2 h after injection, Me [Q1–Q3]): 1.18 [0.78–1.67]
SUVmax, tumor (T) ([2]; BCa patient B1, SPECT/CT): T: 1.41 (2.8 × 2.2)
SUVmax, single LN metastasis (LNM) ([2]; BCa patient B2, SPECT/CT): 1.8
SUVmax, tumor (T) ([2]; BCa patient B2, SPECT/CT): 1.75
SUVmax, single LN metastasis (LNM) ([2]; BCa patient B3, SPECT/CT): 1.8
SUVmax, tumor (T) ([2]; BCa patient B3, SPECT/CT): 0.87
SUVmax, single LN metastasis (LNM) ([2]; BCa patient B4, SPECT/CT): 0.58
SUVmax, tumor (T) ([2]; BCa patient B4, SPECT/CT): 0.57
SUVmax, single LN metastasis (LNM) ([2]; BCa patient B5, SPECT/CT): 1.8
SUVmax, tumor (T) ([2]; BCa patient B5, SPECT/CT): 0.87
SUVmax, tumor (T) ([2]; BCa patient B6, SPECT/CT): T: 0.43 (1.5 × 1.5)
SUVmax, tumor (T) ([2]; BCa patient B7, SPECT/CT): T: 0.50 (1.5 × 1.4)
patients with high uptake in axillary LN ([2]; BCa patients, SPECT/CT): four BCa patients
patients with increased accumulation in the tumor ([2]; BCa patients, SPECT/CT): seven out of seven
median activity accumulation (SUVmax) ([2]; LN metastases in BCa patients): 1.8 [0.58–1.8]
median activity accumulation (SUVmax) ([2]; breast tumors): 0.87 [0.43–1.75]
tissue uptake dose at 2 h (clinical; female, Gall bladder): 5 ± 5 %ID
tissue uptake dose at 4 h (clinical; female, Gall bladder): 5 ± 4 %ID
tissue uptake dose at 6 h (clinical; female, Gall bladder): 4 ± 3 %ID
tissue uptake dose at 24 h (clinical; female, Gall bladder): 0.3 ± 0.1 %ID
tissue uptake dose at 2 h (clinical; female, Jejunum): 21 ± 9 %ID
tissue uptake dose at 4 h (clinical; female, Jejunum): 25 ± 17 %ID
tissue uptake dose at 6 h (clinical; female, Jejunum): 13 ± 10 %ID
tissue uptake dose at 24 h (clinical; female, Jejunum): 3 ± 2 %ID
tissue uptake dose at 2 h (clinical; female, Kidney): 5 ± 3 %ID
tissue uptake dose at 4 h (clinical; female, Kidney): 3 ± 3 %ID
tissue uptake dose at 6 h (clinical; female, Kidney): 3 ± 3 %ID
tissue uptake dose at 24 h (clinical; female, Kidney): 5 ± 5 %ID
tissue uptake dose at 2 h (clinical; female, Liver): 6 ± 2 %ID
tissue uptake dose at 4 h (clinical; female, Liver): 3 ± 1 %ID
tissue uptake dose at 6 h (clinical; female, Liver): 3 ± 2 %ID
tissue uptake dose at 24 h (clinical; female, Liver): 2 ± 2 %ID
tissue uptake dose at 2 h (clinical; female, Lower colon): 1.4 ± 0.8 %ID
tissue uptake dose at 4 h (clinical; female, Lower colon): 1 ± 0.9 %ID
tissue uptake dose at 6 h (clinical; female, Lower colon): 0.8 ± 0.7 %ID
tissue uptake dose at 24 h (clinical; female, Lower colon): 20 ± 15 %ID
tissue uptake dose at 2 h (clinical; female, Upper colon): 1.1 ± 0.6 %ID
tissue uptake dose at 4 h (clinical; female, Upper colon): 6 ± 12 %ID
tissue uptake dose at 6 h (clinical; female, Upper colon): 19 ± 17 %ID
tissue uptake dose at 24 h (clinical; female, Upper colon): 15 ± 10 %ID
tissue uptake dose at 2 h (clinical; female, Urinary bladder): 4 ± 7 %ID
tissue uptake dose at 4 h (clinical; female, Urinary bladder): 1 ± 2 %ID
tissue uptake dose at 6 h (clinical; female, Urinary bladder): 0.3 ± 0.3 %ID
tissue uptake dose at 24 h (clinical; female, Urinary bladder): 0.2 ± 0.2 %ID
activity in liver and kidneys (clinical): over 3 % of injected activity
injected activity excreted via bile (clinical): Up to 40%
route of excretion (clinical): predominantly hepatobiliary excretion
tissue uptake dose at 2 h (clinical; male, Gall bladder): 2 ± 2 %ID
tissue uptake dose at 4 h (clinical; male, Gall bladder): 2 ± 2 %ID
tissue uptake dose at 6 h (clinical; male, Gall bladder): 2 ± 2 %ID
tissue uptake dose at 24 h (clinical; male, Gall bladder): 2.2 ± 0.3 %ID
tissue uptake dose at 2 h (clinical; male, Jejunum): 12 ± 12 %ID
tissue uptake dose at 4 h (clinical; male, Jejunum): 9 ± 9 %ID
tissue uptake dose at 6 h (clinical; male, Jejunum): 9 ± 19 %ID
tissue uptake dose at 24 h (clinical; male, Jejunum): 10 ± 1 %ID
tissue uptake dose at 2 h (clinical; male, Kidney): 2.9 ± 0.9 %ID
tissue uptake dose at 4 h (clinical; male, Kidney): 3 ± 3 %ID
tissue uptake dose at 6 h (clinical; male, Kidney): 3 ± 1 %ID
tissue uptake dose at 24 h (clinical; male, Kidney): 2.4 ± 0.9 %ID
tissue uptake dose at 2 h (clinical; male, Liver): 4 ± 2 %ID
tissue uptake dose at 4 h (clinical; male, Liver): 2.2 ± 0.8 %ID
tissue uptake dose at 6 h (clinical; male, Liver): 1.8 ± 0.6 %ID
tissue uptake dose at 24 h (clinical; male, Liver): 2 ± 1 %ID
tissue uptake dose at 2 h (clinical; male, Lower colon): 0.6 ± 0.5 %ID
tissue uptake dose at 4 h (clinical; male, Lower colon): 0.2 ± 0.2 %ID
tissue uptake dose at 6 h (clinical; male, Lower colon): 0.5 ± 0.4 %ID
tissue uptake dose at 24 h (clinical; male, Lower colon): 0.4 ± 0.2 %ID
tissue uptake dose at 2 h (clinical; male, Upper colon): 1.1 ± 1 %ID
tissue uptake dose at 4 h (clinical; male, Upper colon): 8 ± 3 %ID
tissue uptake dose at 6 h (clinical; male, Upper colon): 20 ± 13 %ID
tissue uptake dose at 24 h (clinical; male, Upper colon): 7 ± 8 %ID
tissue uptake dose at 2 h (clinical; male, Urinary bladder): 4 ± 6 %ID
tissue uptake dose at 4 h (clinical; male, Urinary bladder): 2 ± 1 %ID
tissue uptake dose at 6 h (clinical; male, Urinary bladder): 0.6 ± 0.4 %ID
tissue uptake dose at 24 h (clinical; male, Urinary bladder): 0.16 ± 0.07 %ID
radionuclide-associated dose burden per patient [3]: 3-6 mSv/study
Absorbed dose, Ovaries ([3]; iv): 0.018 ± 0.008
Absorbed dose, Testes ([3]; iv): 0.004 ± 0.005
Absorbed dose, Uterus ([3]; iv): 0.020 ± 0.008
